Experimental data from patent US20160208018A1 (JUNO THERAPEUTICS, published 2016).
Values belong to the binder of their own block, whether it stands above or below them.

How the values were obtained:
[1] = target: T1, Human ROR1 (receptor tyrosine kinase-like orphan receptor 1) (human, UniProt Q01973 30-937); experiment: flow cytometry on ROR1-expressing K562 and CHOK1 cells, mean (n = 2)
T1 construct: also called hROR1; K562/ROR1

[2] = target: T1, Human ROR1 (receptor tyrosine …); experiment: flow cytometry competition, competitor R12 scFv on ROR1-expressing cells, mean (n = 3)
Experimental: (§1) Assays also were performed to assess competition of the clones with the reference antibody (R12 scFv), for binding to ROR1-expressing cells. VH clones were titrated against 2 nM Myc-R12 on ROR1/K562 cells and competition assessed with an anti-Myc-Alexa647 secondary antibody, and the half maximal inhibitory concentration (IC₅₀) determined for respective clones.
(§2) Assays also were performed to assess competition (measured as half maximal inhibitory concentration (IC₅₀)) of the clones with the R12 scFv reference antibody for binding to ROR1-expressing cells, as described in Example 1. Percent (%) max ROR1 and % max competition, as compared to the R12 scFv reference antibody, were determined as described in Example 1.

[3] = target: T1, Human ROR1 (receptor tyrosine …); experiment: flow cytometry on ROR1-expressing cells; predicted plateau relative to R12 scFv = 100%
Experimental: (§3) Additionally, percent (%) maximum (max) binding to ROR1-expressing cells and % max competition with the reference antibody (R12 scFv) were calculated. Percent max binding and competition values were calculated based on predicted plateaus (measured by Prism® using four parameter non-linear regression), relative to values for R12 scFv binding and inhibition, respectively, assigned as 100% in each study.
as §2

[4] = target: T1, Human ROR1 (receptor tyrosine …); experiment: competition with R12 scFv on ROR1-expressing cells; predicted plateau relative to R12 scFv = 100%
Experimental: as §3, §2

[5] = target: T1, Human ROR1 (receptor tyrosine …); experiment: flow cytometry on ROR1-expressing K562 and CHOK1 cells, mean (n = 20)
[6] = target: T1, Human ROR1 (receptor tyrosine …); experiment: as above; remark: listed apart in the source
[7] = target: T1, Human ROR1 (receptor tyrosine …); experiment: flow cytometry self-competition, competitor R12 scFv on ROR1-expressing cells, mean (n = 17)
Experimental: as §1, §2

[8] = target: T1, Human ROR1 (receptor tyrosine …); experiment: flow cytometry self-competition, competitor 2 nM Myc-R12 scFv on ROR1/K562 cells, mean (n = 17)
Experimental: as §1

Mouse ROR1 = target: T2, Mouse ROR1 (mouse, UniProt Q9Z139 30-937); experiment: inferred from IFN-gamma release of CAR-expressing CD8+ T cells co-cultured with K562/mouse ROR1 cells
T2 construct: also called mROR1; K562/mouse ROR1
T2 sequence (Q9Z139 30-937): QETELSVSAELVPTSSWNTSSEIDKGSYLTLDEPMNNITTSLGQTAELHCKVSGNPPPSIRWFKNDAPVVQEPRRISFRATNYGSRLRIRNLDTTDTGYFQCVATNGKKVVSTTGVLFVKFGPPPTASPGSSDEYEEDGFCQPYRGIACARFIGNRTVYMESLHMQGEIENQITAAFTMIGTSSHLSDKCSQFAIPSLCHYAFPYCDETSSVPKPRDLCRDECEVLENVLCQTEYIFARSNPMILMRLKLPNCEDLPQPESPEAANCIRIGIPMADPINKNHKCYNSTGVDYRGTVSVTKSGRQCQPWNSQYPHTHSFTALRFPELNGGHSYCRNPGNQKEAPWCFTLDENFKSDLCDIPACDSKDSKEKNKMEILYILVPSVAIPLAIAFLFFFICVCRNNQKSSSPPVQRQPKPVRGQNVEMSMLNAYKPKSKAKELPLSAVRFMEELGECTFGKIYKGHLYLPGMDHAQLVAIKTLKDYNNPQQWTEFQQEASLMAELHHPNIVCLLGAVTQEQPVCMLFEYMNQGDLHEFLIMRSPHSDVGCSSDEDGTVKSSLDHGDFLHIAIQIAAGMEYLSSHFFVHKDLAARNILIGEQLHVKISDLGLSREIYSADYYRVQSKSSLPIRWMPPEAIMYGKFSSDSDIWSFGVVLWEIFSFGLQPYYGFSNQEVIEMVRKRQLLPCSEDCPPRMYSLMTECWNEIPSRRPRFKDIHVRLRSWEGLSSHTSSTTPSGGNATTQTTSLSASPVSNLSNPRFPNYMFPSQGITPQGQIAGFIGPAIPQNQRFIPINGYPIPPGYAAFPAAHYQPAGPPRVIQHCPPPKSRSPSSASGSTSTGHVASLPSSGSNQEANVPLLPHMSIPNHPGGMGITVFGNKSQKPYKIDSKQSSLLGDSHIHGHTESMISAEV
Experimental: Cytokine release was assessed following incubation of the CAR-expressing cells with either K562/human ROR1 (hROR1) or K562/mouse ROR1 (mROR1) antigen-expressing cells. Transduced CD8+ T cells were co-cultured with antigen-expressing cells at a single effector to target (E:T). The co-cultured cells were incubated for about 24 hours, and then supernatants were collected for measurement of IFN-γ using a cytokine immunoassay.

T1 sequence (Q01973 30-937): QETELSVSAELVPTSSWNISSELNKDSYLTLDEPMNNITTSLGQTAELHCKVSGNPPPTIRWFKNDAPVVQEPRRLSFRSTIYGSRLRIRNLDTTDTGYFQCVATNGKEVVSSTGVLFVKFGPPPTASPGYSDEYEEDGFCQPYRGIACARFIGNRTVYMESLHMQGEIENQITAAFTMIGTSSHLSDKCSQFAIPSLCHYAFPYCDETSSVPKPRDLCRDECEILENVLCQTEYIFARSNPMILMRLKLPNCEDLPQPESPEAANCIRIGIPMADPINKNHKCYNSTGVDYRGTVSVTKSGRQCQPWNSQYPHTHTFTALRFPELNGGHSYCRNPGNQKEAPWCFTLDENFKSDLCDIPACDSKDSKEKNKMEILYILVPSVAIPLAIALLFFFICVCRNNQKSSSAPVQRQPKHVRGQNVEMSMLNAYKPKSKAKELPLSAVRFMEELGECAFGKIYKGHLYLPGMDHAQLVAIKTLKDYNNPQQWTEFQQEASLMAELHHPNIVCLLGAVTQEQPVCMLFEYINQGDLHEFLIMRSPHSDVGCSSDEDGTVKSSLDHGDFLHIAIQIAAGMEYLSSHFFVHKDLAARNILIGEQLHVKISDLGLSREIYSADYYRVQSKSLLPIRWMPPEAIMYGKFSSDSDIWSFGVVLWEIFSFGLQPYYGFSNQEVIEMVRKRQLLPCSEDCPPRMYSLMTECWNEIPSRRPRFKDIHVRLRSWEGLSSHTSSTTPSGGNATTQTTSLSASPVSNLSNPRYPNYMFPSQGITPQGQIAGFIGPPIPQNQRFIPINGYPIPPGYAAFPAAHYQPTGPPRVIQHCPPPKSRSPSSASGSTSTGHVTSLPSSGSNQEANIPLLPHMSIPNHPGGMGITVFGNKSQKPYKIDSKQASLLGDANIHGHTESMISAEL

EC50 [1]: 2.5 nM
IC50 [2]: 11.1 nM
% Max Binding [3]: 70%
% Max Competition [4]: 103%
B1: Clone 83 scFv (scFv)
scFv: QVQLVQSGAEVKKPGASVKVSCKASGYTFTSYYMHWVRQAPGQGLEWMGIINPSGGSTSYAQKFQGRVTMTRDTSTSTVYMELSSLRSEDTAVYYCARDSSYDAFDIWGQGTMVTVSSGGGGSGGGGSGGGGSAIQLTQSPSTLSASVGDRVTITCQASQDISNYLNWYQQKPGKAPKLLINDASYLETGVPSRFSGSGSGTDFTLTISSLQPEDIATYYCQQYESLPYTFGQGTKLEIK

EC50 [5]: 0.8 nM
EC50 [6]: 0.8 nM
IC50 [7]: 3.3 nM
IC50 [8]: 3.3 nM
B2: R12 scFv reference antibody (scFv)
scFv: QEQLVESGGRLVTPGGSLTLSCKASGFDFSAYYMSWVRQAPGKGLEWIATIYPSSGKTYYATWVNGRFTISSDNAQNTVDLQMNSLTAADRATYFCARDSYADDGALFNIWGPGTLVTISSGGGGSGGGGSGGGGSELVLTQSPSVSAALGSPAKITCTLSSAHKTDTIDWYQQLQGEAPRYLMQVQSDGSYTKRPGVPDRFSGSSSGADRYLIIPSVQADDEADYYCGADYIGGYVFGGGTQLTVTG
notes: also called Myc-R12; rabbit anti-ROR1 antibody

binding result (Mouse ROR1): no binding
B3: CAR containing the rabbit anti-ROR1 (R12) scFv (VH-VL) (other)
chain: B2 scFv
notes: Control chimeric antigen receptor expressed on primary human CD8+ T cells; tEGFR marker is split off by T2A; also called R12 scFv CAR; not shown: Ig-derived hinge only spacer, human CD28-derived transmembrane domain, human 4-1BB-derived intracellular signaling domai
